Laboratory results: patent publication US20100247549A1

Columns and labels:
[1] = target: Envelope glycoprotein (E) of antigenic variant DENV-4 v3 (Glu for Lys at position 174 in E) (dengue virus type 4) (UniProt P09866); experiment: cell-based or functional assay
[2] = target: Envelope glycoprotein (E) of antigenic variant DENV-4 v4 (Leu for Pro at position 176 in E) (dengue virus type 4) (UniProt P09866); experiment: cell-based or functional assay
[3] = target: Envelope glycoprotein (E) of antigenic variant DENV-4 v4 (Leu for Pro at position 176 in E) (dengue virus type 4) (UniProt P09866)
[4] = target: Envelope glycoprotein (E) of parental DENV-4 (FRhL) (dengue virus type 4) (UniProt P09866)
[5] = target: Fc receptors on K562 cells; experiment: cell-based or functional assay

Substance	PRNT50 titer [1] [µg/mL]	PRNT50 titer [2] [µg/mL]	Kd [3] [nM]	Kd [4] [nM]	enhancing activity of DENV-4 infection in K562 cells, % of cells infected [5] [%]
Humanized IgG 5H2 ΔD (IgG1 5H2 with a 9-amino-acid deletion, positions 231-239, at the N-terminus of the CH2 domain) (antibody)	> 10	0.5	0.32	0.23	
IgG 1A5 ΔA (replacement amino acids at 327, 330 and 331 from the Fc of IgG4) (from UniProt P01857 1-330) (antibody)					37.6
IgG 1A5 ΔB (replacement amino acids at 233-236 from the Fc of IgG2) (from UniProt P01857 1-330) (antibody)					24
IgG 1A5 ΔC (replacements of both variants ΔA and ΔB) (from UniProt P01857 1-330) (antibody)					18.8
